According to patent US8986655B2, “Compositions, devices, and methods related to prostate-specific membrane antigen” (The Regents of the University of California, priority 2009, dated 2015):
Values belong to the sequence of their own block, whether it stands above or below them.

Key:
[1] = molecular target: transferrin receptor (TfR) (Homo sapiens, UniProt P02786); test: Cross-reactivity for binding transferrin receptor; conditions: homolog of PSMA (54% sequence identical)
Source text: It should be noted that the two substitutions incorporated in the sequence of peptide 3 [SEQ ID NO: 4] were L1S and D2E. The serine substitution removes a hydrophobic leucine residue, which provides the peptide with a more polar side chain, which can accept and donate hydrogen bonds (H-bonds). The hydroxyl group likely improves the surface complementarity at the binding interface with PSMA by creating new H-bonding contacts with the protein backbone, or by participating in an extended H-bonding network directly or indirectly through water to other side chains at the binding site. The selection of Glu in place of Asp merely extends the side chain length by one carbon unit. This substitution maintains contribution of the carboxylate functionality, and the length extension of 1.5 Å could allow for new H-bonding or salt-bridging opportunities. Clearly, the core sequence of the selected peptides is critical for the molecular recognition of PSMA, and this core remained conserved in the tightest binding peptides.

homodimeric PSMA = homodimeric PSMA (Homo sapiens, UniProt Q04609); test: Phage-based ELISA, binding to PSMA dimer; conditions: for relative binding affinity to PSMA compared with parent peptide 2: 1 μg/mL homodimeric PSMA, half of the binding time (FIG. 1A); for binding to PSMA dimer: phage-displayed peptide, 1 μg/mL PSMA dimer, ELISA (FIG. 5)
Source text: (§1) An eight residue long peptide with the amino acid sequence […] [SEQ ID NO: 1], was previously identified as a PSMA binder from an 8-mer (X8) library. […] (also referred to as peptide 1 in the Figures) to PSMA as reported previously. In addition to […] [SEQ ID NO: 1], the inventors also examined a longer 13-mer peptide, selected from a disulfide-constrained library with the amino acid sequence […] [SEQ ID NO: 3] (also referred to as peptide 2 in the Figures).
The five peptides [SEQ ID NOs: 4-8] […] These peptides were assayed for binding to 1 μg/mL of homodimeric PSMA, a concentration 10-fold less than the parent peptide required for binding assays. This higher stringency can better distinguish very high from moderate affinity binders. […] FIG. 1A illustrated peptides selected from homolog shotgun scanning library. FIG. 1B illustrates relative affinity of selected peptide 3 [SEQ ID NO: 4] versus the previous highest affinity peptide 1 [SEQ ID NO: 2]. FIG. 1C illustrates a bar graph showing that 20 nM phage displaying peptide 1 [SEQ ID NO: 2] has binding affinity similar to that of 0.2 nM phage displaying peptide 3 [SEQ ID NO: 4], and 20 nM phage displaying parent peptide 2 [SEQ ID NO: 3] has binding affinity similar to 0.02 nM phage displaying peptide 3 [SEQ ID NO: 4].
A phage-based ELISA was performed using purified peptide 10 to determine whether the peptide enhances the binding to immobilized PSMA. […] Here, the graph illustrates results for the phage displaying peptide 3 [SEQ ID NO.4], wrapped with peptide 10 binding 1 μg/mL PSMA dimer

PSMA monomer = PSMA monomer (Homo sapiens, UniProt Q04609); test: Phage-displayed ELISA, binding to PSMA monomer; conditions: phage-displayed peptide, 1 μg/mL PSMA monomer, ELISA (FIG. 5)
Source text: as §1

PSMA = PSMA (Homo sapiens, UniProt Q04609); conditions: phage-displayed ELISAs, QCM, EIS; as reported previously; cited from earlier work
[2] = phage-based ELISA with 20 nM phage, phage concentration versus HRP activity (FIGS. 1B, 1C)

PSMA monomer, sequence (Q04609 whole entry): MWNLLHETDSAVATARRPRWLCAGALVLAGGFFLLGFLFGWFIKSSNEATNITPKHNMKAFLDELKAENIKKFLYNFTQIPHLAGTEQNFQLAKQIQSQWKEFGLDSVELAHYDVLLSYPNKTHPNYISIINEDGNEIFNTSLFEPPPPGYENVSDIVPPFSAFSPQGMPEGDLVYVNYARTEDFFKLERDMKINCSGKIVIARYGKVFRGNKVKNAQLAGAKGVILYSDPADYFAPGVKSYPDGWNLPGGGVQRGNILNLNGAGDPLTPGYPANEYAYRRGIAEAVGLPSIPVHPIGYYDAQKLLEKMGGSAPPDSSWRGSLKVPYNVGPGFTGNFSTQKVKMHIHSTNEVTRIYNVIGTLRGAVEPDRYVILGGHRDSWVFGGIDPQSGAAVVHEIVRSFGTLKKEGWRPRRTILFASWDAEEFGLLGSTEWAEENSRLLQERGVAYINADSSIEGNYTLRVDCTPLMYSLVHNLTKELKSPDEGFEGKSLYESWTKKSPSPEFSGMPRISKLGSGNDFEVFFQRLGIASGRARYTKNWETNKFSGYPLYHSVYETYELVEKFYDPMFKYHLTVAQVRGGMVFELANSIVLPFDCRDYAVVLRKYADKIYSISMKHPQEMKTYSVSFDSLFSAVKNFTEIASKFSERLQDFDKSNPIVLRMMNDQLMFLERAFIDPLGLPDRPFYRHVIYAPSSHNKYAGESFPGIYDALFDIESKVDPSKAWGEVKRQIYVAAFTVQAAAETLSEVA
homodimeric PSMA, sequence (Q04609 whole entry): as above
PSMA, sequence (Q04609 whole entry): as above
transferrin receptor (TfR), sequence (P02786 whole entry, species assumed): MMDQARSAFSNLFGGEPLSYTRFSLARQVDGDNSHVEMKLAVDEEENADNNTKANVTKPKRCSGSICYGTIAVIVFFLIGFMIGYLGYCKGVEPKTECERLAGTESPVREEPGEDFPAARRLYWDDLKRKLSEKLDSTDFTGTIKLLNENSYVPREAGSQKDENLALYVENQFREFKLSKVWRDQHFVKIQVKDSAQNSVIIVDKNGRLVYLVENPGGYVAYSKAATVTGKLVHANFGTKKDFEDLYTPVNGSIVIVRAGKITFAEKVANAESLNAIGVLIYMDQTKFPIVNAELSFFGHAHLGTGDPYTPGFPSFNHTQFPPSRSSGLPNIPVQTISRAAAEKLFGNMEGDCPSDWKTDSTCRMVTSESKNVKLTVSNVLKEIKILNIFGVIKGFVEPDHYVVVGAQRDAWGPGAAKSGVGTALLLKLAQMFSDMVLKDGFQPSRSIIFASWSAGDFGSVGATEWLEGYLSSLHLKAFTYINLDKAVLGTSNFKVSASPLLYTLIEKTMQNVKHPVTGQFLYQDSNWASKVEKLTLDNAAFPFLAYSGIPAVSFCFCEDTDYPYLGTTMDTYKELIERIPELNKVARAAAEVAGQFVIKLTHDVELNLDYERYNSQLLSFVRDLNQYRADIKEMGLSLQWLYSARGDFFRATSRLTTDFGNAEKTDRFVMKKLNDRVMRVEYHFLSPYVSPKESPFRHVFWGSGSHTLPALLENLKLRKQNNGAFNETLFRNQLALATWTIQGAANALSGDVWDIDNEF

cross-reactivity for binding transferrin receptor (TfR) [1]: no detectable cross-reactivity
relative binding affinity to PSMA compared with parent peptide 2 (homodimeric PSMA): higher affinity towards the target
phage concentration with binding affinity similar to 20 nM phage displaying parent peptide 2 (homodimeric PSMA; PSMA 1 μg/mL (FIG. 1C)): 0.02 nM
phage concentration with binding affinity similar to 20 nM phage displaying peptide 1 (homodimeric PSMA; PSMA 1 μg/mL (FIG. 1C)): 0.2 nM
fold higher affinity for PSMA compared to parent peptide 2 (homodimeric PSMA; [2]): ≈ 1000 times
fold higher affinity for PSMA than peptide 1 (homodimeric PSMA; [2]): ≈ 100 times
Sequence: SECVEVFQNSCDW [peptide 3, peptide from the homolog shotgun scanning library]

binding to PSMA dimer (homodimeric PSMA): only binds to dimeric PSMA
Sequence: LDCVEVFQNSCDW [peptide 2, 13-mer peptide selected from a disulfide-constrained library; parent of the homolog library]
binding to PSMA monomer (PSMA monomer): fails to bind the monomer with significant affinity
binding to PSMA monomer (PSMA monomer; listed as Peptide 2): does not bind PSMA monomer with appreciable affinity

Sequence: CALCEFLG (Synthetic oligopeptiide) [peptide 1, reference compound]
binding to PSMA monomer (PSMA monomer): efficient binding
binding to PSMA (PSMA): strong binding
apparent affinity for dimeric PSMA relative to the monomeric isoform (homodimeric PSMA; phage-displayed ELISA, dimer versus monomer): exceeds affinity for the monomeric isoform
binding to PSMA dimer (homodimeric PSMA): efficient binding
binding to PSMA dimer (homodimeric PSMA; listed as Peptide 1): higher affinity to PSMA dimer than peptide 2

relative binding affinity to PSMA compared with parent peptide 2 (homodimeric PSMA): higher affinity towards the target
Sequence: SDCVEVFQNSCDW [compound 4, peptide from the homolog shotgun scanning library]
